Read-outs that look alike come from different tables or passages of the source.
Assays:
[1] = target: T1, human TIGIT expressed on cells (stably transfected Jurkat cells) (human, UniProt Q495A1 22-244); assay: TIGIT WCB: whole cell binding, flow cytometry, h-TIGIT Jurkat cells; mean
T1 construct: Also used here for TIGIT on primary T cells in the MLR; also called h-TIGIT; T cell immunoreceptor with Ig and ITIM domains
T1 sequence: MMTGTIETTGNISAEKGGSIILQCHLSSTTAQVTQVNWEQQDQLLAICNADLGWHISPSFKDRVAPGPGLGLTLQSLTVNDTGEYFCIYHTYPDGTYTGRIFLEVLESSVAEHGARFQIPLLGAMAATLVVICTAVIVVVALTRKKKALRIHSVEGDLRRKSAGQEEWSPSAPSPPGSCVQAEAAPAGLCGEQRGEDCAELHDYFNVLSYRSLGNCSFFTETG
Procedure: Affinity to TIGIT was further examined in whole cell binding assay using human TIGIT transfected Jurkat cells. Antibodies were incubated with h-TIGIT transfected Jurkat cells, and binding of antibodies to h-TIGIT was determined using a secondary anti-human-IgG Fc antibody conjugated with AlexaFluor488, which was detected by flow cytometry.

[2] = target: T1, human TIGIT expressed on cells (stably …); assay: cell-based or functional assay
[3] = target: T1, human TIGIT expressed on cells (stably …); assay: flow cytometry (whole cell binding) on h-TIGIT transfected Jurkat cells; table under the graph, Average (n=3), SD 0.37
[4] = target: T1, human TIGIT expressed on cells (stably …); assay: flow cytometry (whole cell binding) on h-TIGIT transfected Jurkat cells; table under the graph, Average (n=3), SD 1.61
[5] = target: T1, human TIGIT expressed on cells (stably …); assay: flow cytometry on h-TIGIT transfected Jurkat cells, anti-human IgG Fc Alexa Fluor 488
Source text: FIGS. 3A and 3B depict whole cell binding of humanized 1C12 and 1G1 clones to human TIGIT determined by flowcytometry assays. 1C12-chimeric is an antibody with Llama VHH sequence of 1C12 clone and human IgG1 CH2 and CH3 domains, 1C12 (F-EREF), 1C12 (F-EREW) and 1C12 (F-GLEW) are humanized versions of 1C12 clone with difference of mutations in Framework 2. 1G1-chimeric is an antibody with Llama VHH sequence of 1G1 clone and human IgG1 CH2 and CH3 domains. 1G1 (F-G-ERES), 1G1 (F-A-ERES), 1G1 (F-A-EREW) and 1G1 (F-A-GLEW) are four different versions of humanized 1G1 clones with different mutations in framework 2. Y axis is values of Mean Fluorescence Intensity of AlexaFlour 488. X axis is values of antibody concentrations in nanomolar.
The binding affinities of the humanized bivalent antibodies to human TIGIT were determined by whole cell binding to h-TIGIT stably expressed on Jurkat cells. Briefly, antibodies were incubated with h-TIGIT transfected Jurkat cells (0.2×10⁶/well in 100 μl) for 30 min in FACS buffer. The cells were washed once, then incubated with anti-human IgG Fc AlexaFluor488 (1:500). Mean fluorescence intensity was determined by CytoFlex, and binding affinities of antibodies to h-TIGIT were calculated using non-liner regression by GraphPad Prism 8.0 as shown in FIG. 3A.

[6] = target: T1, human TIGIT expressed on cells (stably …); assay: as above; remark: listed apart in the source
Source text: FIGS. 1A-1C depict whole cell binding of representative VHH bivalent antibodies to human TIGIT determined by flowcytometry assays. […] Y axis represents Mean Fluorescence Intensity of AlexaFlour 488. X axis represents antibody concentrations in nanomolar. 2B7, 1G1, 1C12, 3G6, 2B10, 3G7, 3G10, 13H11, and 15A5 are VHH clones of anti-human TIGIT. FIG. 1C is a schematic of the structure of a TIGIT VHH bivalent antibody.
Binding affinities of the bivalent clones to human TIGIT transfected Jurkat cells were confirmed by flowcytometry assays. Jurkat cells stably expressing human TIGIT and NFAT reporter gene were established. Specifically, Jurkat cells were transfected with human TIGIT expression vector by electroporation, and cells stably expressing human TIGIT were selected by 1 μg/ml puromycin during cell culture. Representative antibody clones were incubated at different concentrations with h-TIGIT stably expressing Jurkat cells (0.2×10^6/ml) in 100 μl/well in 96-well plate in FACS buffer (PBS with 1.5% FBS) for 30 min. After washing, Alexaflour 488 conjugated anti-human IgG Fc secondary antibody (Alexa Fluor® 488 AffiniPure Goat Anti-Human IgG, Fcγ fragment specific, Jackson labs, 1:500 dilution) was added and incubated for 30 min. After washing, mean fluorescence intensity was measured using CytoFlex (Beckman Coulter) by gating live cell population. Binding affinity was calculated using GraphPad Prism.

[7] = target: T1, human TIGIT expressed on cells (stably …); assay: flow cytometry (whole cell binding) on h-TIGIT transfected Jurkat cells; table under the graph, Average (n=3), SD 71.12
[8] = target: T2, recombinant ECD of mouse FcγRIV (mouse, UniProt A0A0B4J1G0 21-203); assay: Octet (ForteBio), receptor ECD loaded on the sensor, antibody at 5 concentrations (not given) [m- FcγRIV binding]
T2 sequence: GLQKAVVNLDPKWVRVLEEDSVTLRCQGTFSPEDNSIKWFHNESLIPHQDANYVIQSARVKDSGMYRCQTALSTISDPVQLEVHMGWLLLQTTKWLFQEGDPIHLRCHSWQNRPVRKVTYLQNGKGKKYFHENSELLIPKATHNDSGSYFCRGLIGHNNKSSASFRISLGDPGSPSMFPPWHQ
Source text: (§1) FIG. 12 depicts binding of 2A3-LT-Fc wild type (wt) and Fc mutations (DLE and VLPLL) to human FcγRIIIA, human FcγRIIB and mouse FcγRIV determined using Octet binding assay. Sensors were loaded with recombinant proteins of ECDs of FcγRIIIA, human FcγRIIB and mouse FcγRIV, association and dissociation of 2A3-LT-Fc wt, DLE or VLPLL mutants at 5 different concentrations were detected using ForteBio. Y axis represents association, dissociation & Rmax. X axis represents time in second. Both DLE and VLPLL mutants had enhanced binding affinity to human FcγRIIIA compared to that of wild type, DLE mutant also had enhanced binding affinity to human FcγRIIB, however VLPLL mutant reduced binding affinity to human FcγRIIB All versions had similar affinity to mouse FcγRIV.

[9] = target: T3, recombinant ECD of human FcγRIIB (human, UniProt P31994 43-217); assay: Octet (ForteBio), receptor ECD loaded on the sensor, antibody at 5 concentrations (not given) [h-FcγRIIB binding]
T3 construct: extracellular domain
T3 sequence (looked up): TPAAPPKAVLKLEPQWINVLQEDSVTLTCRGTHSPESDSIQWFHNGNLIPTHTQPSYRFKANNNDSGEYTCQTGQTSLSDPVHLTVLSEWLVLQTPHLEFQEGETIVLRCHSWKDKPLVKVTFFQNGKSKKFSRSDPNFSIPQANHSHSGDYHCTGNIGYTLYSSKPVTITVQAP
Source text: as §1

[10] = target: human FcγRIIIA expressed on transfected Jurkat cells (human, UniProt P08637 17-254); assay: cell-based or functional assay
Chain of human FcγRIIIA expressed on transfected Jurkat cells (P08637 17-254): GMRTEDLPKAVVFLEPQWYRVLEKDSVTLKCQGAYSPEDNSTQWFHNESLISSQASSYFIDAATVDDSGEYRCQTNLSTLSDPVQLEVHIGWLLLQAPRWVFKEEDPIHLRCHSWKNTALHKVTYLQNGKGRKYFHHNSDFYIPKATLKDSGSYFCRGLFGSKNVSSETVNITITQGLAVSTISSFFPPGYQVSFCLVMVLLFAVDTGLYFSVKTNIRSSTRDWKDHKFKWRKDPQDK

[11] = target: T1, human TIGIT expressed on cells (stably …); assay: cell-based or functional assay; remark: listed apart in the source

B1: anti-TIGIT x anti-PD1 bispecific antibody, HCN version (bispecific antibody, human IgG4 S228P, kappa)
heavy: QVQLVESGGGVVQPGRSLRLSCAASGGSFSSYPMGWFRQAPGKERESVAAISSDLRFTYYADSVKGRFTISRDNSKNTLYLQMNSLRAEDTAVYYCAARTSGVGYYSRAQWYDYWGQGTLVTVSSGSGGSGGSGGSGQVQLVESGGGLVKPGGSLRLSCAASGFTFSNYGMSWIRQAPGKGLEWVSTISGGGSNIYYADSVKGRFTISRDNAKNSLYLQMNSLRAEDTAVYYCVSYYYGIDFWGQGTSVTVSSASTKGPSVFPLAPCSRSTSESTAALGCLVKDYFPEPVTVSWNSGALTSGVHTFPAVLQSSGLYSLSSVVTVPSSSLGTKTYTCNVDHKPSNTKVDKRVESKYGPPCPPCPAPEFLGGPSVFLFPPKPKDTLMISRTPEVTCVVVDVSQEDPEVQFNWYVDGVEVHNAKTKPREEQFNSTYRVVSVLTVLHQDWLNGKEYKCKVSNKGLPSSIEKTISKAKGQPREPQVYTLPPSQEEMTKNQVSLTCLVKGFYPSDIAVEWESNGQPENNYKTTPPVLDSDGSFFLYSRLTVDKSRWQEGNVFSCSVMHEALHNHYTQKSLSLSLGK
light: DIQMTQSPSSLSASVGDRVTITCKASQDVTTAVAWYQQKPGKAPKLLIYWASTRHTGVPSRFSGSGSGTDFTLTISSLQPEDFATYYCQQHYTIPWTFGGGTKLEIKRTVAAPSVFIFPPSDEQLKSGTASVVCLLNNFYPREAKVQWKVDNALQSGNSQESVTEQDSKDSTYSLSSTLTLSKADYEKHKVYACEVTHQGLSSPVTKSFNRGEC
notes: VHH 2A3 fused to the N-terminus of the anti-PD1 heavy chain; also called aTIGITxaPD1-HCN; BsAb HCN
EC50 [1]: 0.81 nM
EC50 (Mean, nM), PD1 + TIGIT Combination Blockade Assay (double blockade) [2]: 1.15 nM
EC50 (Mean, nM), TIGIT Blockade Assay [2]: 2.7 nM
EC50 [3]: 0.55 nM

B2: anti-TIGIT x anti-PD1 bispecific antibody, HCC version (bispecific antibody, human IgG4 S228P, kappa)
heavy: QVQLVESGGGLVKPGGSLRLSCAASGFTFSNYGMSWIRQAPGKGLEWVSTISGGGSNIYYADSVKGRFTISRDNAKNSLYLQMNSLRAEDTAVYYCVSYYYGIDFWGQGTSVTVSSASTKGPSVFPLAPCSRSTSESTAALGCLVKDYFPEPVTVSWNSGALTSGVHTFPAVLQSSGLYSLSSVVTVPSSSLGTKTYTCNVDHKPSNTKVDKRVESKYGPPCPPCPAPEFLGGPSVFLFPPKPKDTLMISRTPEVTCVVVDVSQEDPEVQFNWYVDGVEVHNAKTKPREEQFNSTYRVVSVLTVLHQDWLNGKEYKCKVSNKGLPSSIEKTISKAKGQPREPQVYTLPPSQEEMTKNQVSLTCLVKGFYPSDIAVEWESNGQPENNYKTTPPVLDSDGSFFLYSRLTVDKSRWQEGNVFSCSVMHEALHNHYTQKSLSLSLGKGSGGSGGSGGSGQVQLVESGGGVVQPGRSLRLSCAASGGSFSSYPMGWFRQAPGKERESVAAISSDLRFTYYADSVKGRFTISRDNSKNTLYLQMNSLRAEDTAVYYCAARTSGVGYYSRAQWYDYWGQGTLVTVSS
light: DIQMTQSPSSLSASVGDRVTITCKASQDVTTAVAWYQQKPGKAPKLLIYWASTRHTGVPSRFSGSGSGTDFTLTISSLQPEDFATYYCQQHYTIPWTFGGGTKLEIKRTVAAPSVFIFPPSDEQLKSGTASVVCLLNNFYPREAKVQWKVDNALQSGNSQESVTEQDSKDSTYSLSSTLTLSKADYEKHKVYACEVTHQGLSSPVTKSFNRGEC
notes: VHH 2A3 fused to the C-terminus of the anti-PD1 heavy chain; also called aTIGITxaPD1-HCC
EC50 [1]: 4.93 nM
EC50 (Mean, nM), PD1 + TIGIT Combination Blockade Assay (double blockade) [2]: 2.61 nM
EC50 (Mean, nM), TIGIT Blockade Assay [2]: 25.9 nM
EC50 [4]: 4.2 nM

B3: 1G1 bivalent VHH antibody (1G1-chimeric) (Fc fusion)
chain: QVQLVESGGGLVQAGDSLRLSCVASGPSFSSYPMGWFRQGPGKERESVAAISSDGRFTYYAASVKGRFTISKDNAKSAAFLQMNSLKPEDTAVYYCAARDSGSGYYSRAQWYDYWGQGTLVTVSS
notes: Llama VHH of 1G1 with human IgG1 CH2 and CH3; also called chimeric parental clone; not shown: human IgG1 CH2 and CH3 domains
EC50 (read off the curve) [5]: ~0.07 nM
EC50 (read off the curve) [6]: ~0.09 nM

B4: anti-TIGIT x anti-PD1 bispecific antibody, LCC version (bispecific antibody, human IgG4 S228P, kappa)
heavy: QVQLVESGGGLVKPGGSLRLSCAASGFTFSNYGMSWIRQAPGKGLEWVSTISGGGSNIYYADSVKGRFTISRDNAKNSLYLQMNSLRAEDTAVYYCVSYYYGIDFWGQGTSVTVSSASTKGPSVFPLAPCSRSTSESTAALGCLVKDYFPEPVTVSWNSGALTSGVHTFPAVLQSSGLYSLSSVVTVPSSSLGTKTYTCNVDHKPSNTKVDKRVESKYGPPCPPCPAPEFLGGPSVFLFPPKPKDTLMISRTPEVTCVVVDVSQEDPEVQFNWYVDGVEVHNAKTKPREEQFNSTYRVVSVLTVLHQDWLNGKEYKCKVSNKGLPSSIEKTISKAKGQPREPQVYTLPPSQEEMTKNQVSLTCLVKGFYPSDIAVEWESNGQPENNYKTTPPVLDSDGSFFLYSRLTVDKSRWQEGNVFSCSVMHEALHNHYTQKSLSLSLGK
light: DIQMTQSPSSLSASVGDRVTITCKASQDVTTAVAWYQQKPGKAPKLLIYWASTRHTGVPSRFSGSGSGTDFTLTISSLQPEDFATYYCQQHYTIPWTFGGGTKLEIKRTVAAPSVFIFPPSDEQLKSGTASVVCLLNNFYPREAKVQWKVDNALQSGNSQESVTEQDSKDSTYSLSSTLTLSKADYEKHKVYACEVTHQGLSSPVTKSFNRGECGSGGSGGSGGSGQVQLVESGGGVVQPGRSLRLSCAASGGSFSSYPMGWFRQAPGKERESVAAISSDLRFTYYADSVKGRFTISRDNSKNTLYLQMNSLRAEDTAVYYCAARTSGVGYYSRAQWYDYWGQGTLVTVSS
notes: VHH 2A3 fused to the C-terminus of the anti-PD1 light chain; also called aTIGITxaPD1-LCC; aTIGITxaPDI-LCC
EC50 [1]: 192 nM
EC50 (Mean, nM), PD1 + TIGIT Combination Blockade Assay (double blockade) [2]: 0.48 nM
EC50 (Mean, nM), TIGIT Blockade Assay [2]: 10.3 nM
EC50 [7]: 155 nM

B5: 2A3-LT-Fc VLPLL (Fc mutations L235V, F243L, R292P, Y300L, P396L) (Fc fusion)
chain: QVQLVESGGGVVQPGRSLRLSCAASGGSFSSYPMGWFRQAPGKERESVAAISSDLRFTYYADSVKGRFTISRDNSKNTLYLQMNSLRAEDTAVYYCAARTSGVGYYSRAQWYDYWGQGTLVTVSSEPKSCDKTHTCPPCPAPELVGGPSVFLLPPKPKDTLMISRTPEVTCVVVDVSHEDPEVKFNWYVDGVEVHNAKTKPPEEQYNSTLRVVSVLTVLHQDWLNGKEYKCKVSNKALPAPIEKTISKAKGQPREPQVYTLPPSREEMTKNQVSLTCLVKGFYPSDIAVEWESNGQPENNYKTTPLVLDSDGSFFLYSKLTVDKSRWQQGNVFSCSVMHEALHNHYTQKSLSLSPGK
notes: also called VLPLL mutant; VPVLL (as misprinted)
binding result [8]: binds
binding result [9]: binds

B6: 2A3-LT-Fc-DLE (Fc mutations S239D, A330L, I332E) (Fc fusion)
chain: QVQLVESGGGVVQPGRSLRLSCAASGGSFSSYPMGWFRQAPGKERESVAAISSDLRFTYYADSVKGRFTISRDNSKNTLYLQMNSLRAEDTAVYYCAARTSGVGYYSRAQWYDYWGQGTLVTVSSEPKSCDKTHTCPPCPAPELLGGPDVFLFPPKPKDTLMISRTPEVTCVVVDVSHEDPEVKFNWYVDGVEVHNAKTKPREEQYNSTYRVVSVLTVLHQDWLNGKEYKCKVSNKALPLPEEKTISKAKGQPREPQVYTLPPSREEMTKNQVSLTCLVKGFYPSDIAVEWESNGQPENNYKTTPPVLDSDGSFFLYSKLTVDKSRWQQGNVFSCSVMHEALHNHYTQKSLSLSPGK
notes: I332E is printed as 1332E; also called DLE mutant
EC50 (nM), FcγRIIIA-mediated NFAT reporter, Average [10]: 0.024 nM
EC50 (nM), FcγRIIIA-mediated NFAT reporter, Exp 1 [10]: 0.027 nM
EC50 (nM), FcγRIIIA-mediated NFAT reporter, Exp 2 [10]: 0.0295 nM
EC50 (nM), FcγRIIIA-mediated NFAT reporter, Exp 3 [10]: 0.018 nM
EC50 (nM), FcγRIIIA-mediated NFAT reporter, Exp 4 [10]: 0.02 nM
binding result [8]: binds
EC50 (nM), TIGIT blockade NFAT reporter, Average [11]: 0.97 nM
EC50 (nM), TIGIT blockade NFAT reporter, Exp 1 [11]: 0.67 nM
EC50 (nM), TIGIT blockade NFAT reporter, Exp 2 [11]: 0.92 nM
EC50 (nM), TIGIT blockade NFAT reporter, Exp 3 [11]: 1.32 nM
binding result [9]: binds

B7: 1C12 bivalent VHH antibody (1C12-chimeric) (Fc fusion)
chain: QVQLVESGGGLVQTGDSLRLSCAASSRIFSRYGMGWFRQAPGKEREFVAAISWNGASTTYTDSVKGRFTISRDSAENTTYLQINSLRPEDTAVYYCAADPWGAVKLGTAEYEYWGQGTQVTVSS
notes: Llama VHH of 1C12 with human IgG1 CH2 and CH3; also called chimeric parental clone; not shown: human IgG1 CH2 and CH3 domains
EC50 (read off the curve) [5]: ~0.03 nM
EC50 (read off the curve) [6]: ~0.04 nM

Reference: US20230060388A1 (SHANGHAI HENLIUS BIOTECH, published 2023)
